Laboratory results: US20220184120A1 (MINERVA BIOTECHNOLOGIES, published 2022)

Key:
[1] = biological target: T1, C-10 peptide (PSMGFR minus 10 amino acids from the C-terminus); test: ELISA
T1 construct: also called C-10 PSMGFR; PSMGFR C-10
T1 peptide: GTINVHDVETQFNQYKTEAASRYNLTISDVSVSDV

[2] = biological target: T2, N+20/C-27 peptide (20 amino acids added onto the N-terminus and 27 deleted from the C-terminus of PSMGFR); test: ELISA (FIG. 63)
T2 peptide: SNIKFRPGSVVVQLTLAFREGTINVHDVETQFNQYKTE
Method: (§1) ELISA assays were performed to determine if, in addition to recognizing their immunizing peptide, they recognized PSMGFR, N−10 or C−10. In addition, they were tested for their ability to bind to N+20/C−27, N+9/C−9. We first did the ELISA assay on our set of reference antibodies, MNC2, MNE6, which we know are cancer-specific plus MNC3, which we know recognizes stem cells and progenitor cells (FIG. 63A-63B). None of the reference antibodies bound to the N+20/C−27 peptide. MNC2 and MNE6 cannot bind to PSMGFR peptides with 27, 10 or 9 C-terminal deletions, however, MNC3 binds to C−10 and to N+9/C−9 peptides.

[3] = biological target: T3, N+9/C-9 peptide (9 amino acids added onto the N-terminus and 9 deleted from the C-terminus of PSMGFR); test: ELISA (FIG. 63A)
T3 peptide: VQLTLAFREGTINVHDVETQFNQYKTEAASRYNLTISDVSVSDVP
Method: as §1

[4] = biological target: T4, N-10 peptide (PSMGFR minus 10 amino acids from the N-terminus); test: ELISA (FIG. 2B-2C)
T4 construct: also called N-10 PSMGFR; PSMGFR N-10
T4 peptide: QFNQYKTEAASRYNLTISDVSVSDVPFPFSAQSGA

[5] = biological target: T5, PSMGFR peptide (Primary Sequence of the MUC1 Growth Factor Receptor); test: ELISA (FIG. 2C)
T5 construct: synthetic peptide immobilised on ELISA plates; also called MUC1* peptide; MUC1* extra cellular domain peptide
T5 peptide: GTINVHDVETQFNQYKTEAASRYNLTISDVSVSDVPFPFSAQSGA

binding result [1]: no binding
binding result [2]: no binding
binding result [3]: no binding (tested: 10 ug/mL or 1 ug/mL)
binding result [4]: binds
binding result [5]: binds
B1: MN-E6 mouse monoclonal anti-MUC1* antibody (antibody, V domains shown)
VH: EVKVVESGGDLVKPGGSLKLSCVVSGFTFSRYGMSWVRQTPGKRLEWVATISGGGTYIYYPDSVKGRFTISRDNAKNTLYLQMSSLKSEDTAMYHCTRDNYGRNYDYGMDYWGQGTSVTVSS
VL: QIVLTQSPAIMSASPGEEVTLTCSATSSVSYIHWFQQRPGTSPKLWIYSTSNLASGVPVRFSGSGYGTSYSLTISRMEAEDAATYYCQQRSSSPFTFGSGTKLEIK
notes: mouse monoclonal raised against PSMGFR; also called Min-E6
